Target: unmodified nucleosome (UniProt P68431)

- ALC1 nucleosome remodeling rate constant (REA assay): < 0.0003 min⁻¹
Substance: ALC1 (full-length, 6xHis-1xFLAG-ALC1) (from UniProt Q86WJ1 1-897) (enzyme)

From paper PMC8683085, “Serine ADP-ribosylation marks nucleosomes for ALC1-dependent chromatin remodeling” (eLife, 2021)
